Test results taken from the supplement of paper PMC10567573.

B1: SMG5 (parent)
chain: TNPDLIIVCAQSSQSLWNRLSVLL
B2: FEM1B (parent)
chain: TLAALLLNRSESDIRYLLGYVSQQ

Variants of: B1
Assay: protein stability index of a GFP-peptide fusion (GPS, HEK-293T) (PSI 1-6); higher = more stable
Conditions: c terminus: a fixed tail appended
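Also: lentivirally expressed fusions sorted by FACS into six bins by GFP to DsRed ratio, PSI derived from sequencing read proportions per bin multiplied by bin number.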

| Variant | protein stability index |
| --- | --- |
| TNPDLIIVCVQSSQSLWNRLSVLL | 4.35 |
| TNPDLIIVCMQSSQSLWNRLSVLL | 2.8 |
| TNPDLIIVCYQSSQSLWNRLSVLL | 3.09 |
| TNPDLIIVCTQSSQSLWNRLSVLL | 2.17 |
| TNPDLIIVCKQSSQSLWNRLSVLL | 1.59 |
| TNPDLIIVCIQSSQSLWNRLSVLL | 3.25 |
| TNPDLIIVCSQSSQSLWNRLSVLL | 2.94 |
| TNPDLIIVCNQSSQSLWNRLSVLL | 1.95 |
| TNPDLIIVCPQSSQSLWNRLSVLL | 4.01 |
| TNPDLIIVCDQSSQSLWNRLSVLL | 2.01 |
| TNPDLIIVCQQSSQSLWNRLSVLL | 2.4 |
| TNPDLIIVCGQSSQSLWNRLSVLL | 1.98 |
| TNPDLIIVCRQSSQSLWNRLSVLL | 1.8 |
| TNPDLIIVCHQSSQSLWNRLSVLL | 2.68 |
| TNPDLIIVCFQSSQSLWNRLSVLL | 3.77 |
| TNPDLIIVCWQSSQSLWNRLSVLL | 2.35 |
| TNPDLIIVCCQSSQSLWNRLSVLL | 2.61 |
| TNLDLIIVCAQSSQSLWNRLSVLL | 2.29 |
| TNNDLIIVCAQSSQSLWNRLSVLL | 2.52 |
| TNGDLIIVCAQSSQSLWNRLSVLL | 3.64 |
| TNKDLIIVCAQSSQSLWNRLSVLL | 2.48 |
| TNRDLIIVCAQSSQSLWNRLSVLL | 3.61 |
| TNTDLIIVCAQSSQSLWNRLSVLL | 2.8 |
| TNQDLIIVCAQSSQSLWNRLSVLL | 1.71 |

| Variant | protein stability index |
| --- | --- |
| TNWDLIIVCAQSSQSLWNRLSVLL | 3.4 |
| TNADLIIVCAQSSQSLWNRLSVLL | 3.05 |
| TNMDLIIVCAQSSQSLWNRLSVLL | 2.64 |
| TNEDLIIVCAQSSQSLWNRLSVLL | 2.57 |
| TNIDLIIVCAQSSQSLWNRLSVLL | 4.44 |
| TNVDLIIVCAQSSQSLWNRLSVLL | 4.46 |
| TNSDLIIVCAQSSQSLWNRLSVLL | 2.5 |
| TNDDLIIVCAQSSQSLWNRLSVLL | 1.77 |
| TNFDLIIVCAQSSQSLWNRLSVLL | 2.18 |
| TNPDLIWVCAQSSQSLWNRLSVLL | 4.05 |
| TNPDLICVCAQSSQSLWNRLSVLL | 2.48 |
| TNPDLIYVCAQSSQSLWNRLSVLL | 1.65 |
| TNPDLIRVCAQSSQSLWNRLSVLL | 2.02 |
| TNPDLIHVCAQSSQSLWNRLSVLL | 1.68 |
| TNPDLISVCAQSSQSLWNRLSVLL | 1.34 |
| TNPDLIQVCAQSSQSLWNRLSVLL | 1.6 |
| TNPDLILVCAQSSQSLWNRLSVLL | 3.84 |
| TNPDLINVCAQSSQSLWNRLSVLL | 1.64 |
| TNPDLIDVCAQSSQSLWNRLSVLL | 1.7 |
| TNPDLIEVCAQSSQSLWNRLSVLL | 2.25 |
| TNPDLIGVCAQSSQSLWNRLSVLL | 2.55 |
| TNPDLIAVCAQSSQSLWNRLSVLL | 1.51 |
| TNPDLIKVCAQSSQSLWNRLSVLL | 1.71 |
| TNPDLIVVCAQSSQSLWNRLSVLL | 1.1 |

| Variant | protein stability index |
| --- | --- |
| TNPDLIPVCAQSSQSLWNRLSVLL | 2.41 |
| TNPDLIFVCAQSSQSLWNRLSVLL | 1.45 |
| TNPDLIMVCAQSSQSLWNRLSVLL | 1.67 |
| TNPDLITVCAQSSQSLWNRLSVLL | 1.66 |
| TNPDLIIVCAQCSQSLWNRLSVLL | 3.33 |
| TNPDLIIVCAQDSQSLWNRLSVLL | 2.12 |
| TNPDHIIVCAQSSQSLWNRLSVLL | 1.29 |
| TNPDTIIVCAQSSQSLWNRLSVLL | 2.4 |
| TNPDIIIVCAQSSQSLWNRLSVLL | 2.06 |
| TNPDWIIVCAQSSQSLWNRLSVLL | 1.4 |
| TNPDMIIVCAQSSQSLWNRLSVLL | 2.01 |
| TNPDSIIVCAQSSQSLWNRLSVLL | 2.17 |
| TNPDVIIVCAQSSQSLWNRLSVLL | 2.51 |
| TNPDEIIVCAQSSQSLWNRLSVLL | 2.95 |
| TNPDKIIVCAQSSQSLWNRLSVLL | 2.82 |
| TNPDYIIVCAQSSQSLWNRLSVLL | 1.47 |
| TNPDNIIVCAQSSQSLWNRLSVLL | 1.63 |
| TNPDAIIVCAQSSQSLWNRLSVLL | 2.09 |
| TNPDPIIVCAQSSQSLWNRLSVLL | 2.94 |
| TNPDCIIVCAQSSQSLWNRLSVLL | 3.93 |
| TNPDRIIVCAQSSQSLWNRLSVLL | 1.39 |
| TNPDFIIVCAQSSQSLWNRLSVLL | 3.72 |
| TNPDGIIVCAQSSQSLWNRLSVLL | 1.54 |
| TNPDDIIVCAQSSQSLWNRLSVLL | 1.76 |

| Variant | protein stability index |
| --- | --- |
| TNPDQIIVCAQSSQSLWNRLSVLL | 1.73 |
| TNPDLIIECAQSSQSLWNRLSVLL | 1.56 |
| TNPDLIIQCAQSSQSLWNRLSVLL | 1.85 |
| TNPDLIITCAQSSQSLWNRLSVLL | 1.72 |
| TNPDLIILCAQSSQSLWNRLSVLL | 3.74 |
| TNPDLIIDCAQSSQSLWNRLSVLL | 2.09 |
| TNPDLIIGCAQSSQSLWNRLSVLL | 2.27 |
| TNPDLIIYCAQSSQSLWNRLSVLL | 2.59 |
| TNPDLIICCAQSSQSLWNRLSVLL | 1.36 |
| TNPDLIISCAQSSQSLWNRLSVLL | 1.7 |
| TNPDLIIMCAQSSQSLWNRLSVLL | 1.46 |
| TNPDLIIHCAQSSQSLWNRLSVLL | 1.91 |
| TNPDLIIRCAQSSQSLWNRLSVLL | 2.22 |
| TNPDLIIKCAQSSQSLWNRLSVLL | 1.47 |
| TNPDLIINCAQSSQSLWNRLSVLL | 1.88 |
| TNPDLIIWCAQSSQSLWNRLSVLL | 2.69 |
| TNPDLIIACAQSSQSLWNRLSVLL | 1.43 |
| TNPDLIIICAQSSQSLWNRLSVLL | 2.93 |
| TNPDLIIPCAQSSQSLWNRLSVLL | 1.31 |
| TKPDLIIVCAQSSQSLWNRLSVLL | 2.66 |
| TTPDLIIVCAQSSQSLWNRLSVLL | 4.22 |
| TVPDLIIVCAQSSQSLWNRLSVLL | 2.06 |
| TWPDLIIVCAQSSQSLWNRLSVLL | 3.06 |
| TMPDLIIVCAQSSQSLWNRLSVLL | 2.18 |

| Variant | protein stability index |
| --- | --- |
| TRPDLIIVCAQSSQSLWNRLSVLL | 2.88 |
| TGPDLIIVCAQSSQSLWNRLSVLL | 2.66 |
| TLPDLIIVCAQSSQSLWNRLSVLL | 2.99 |
| TCPDLIIVCAQSSQSLWNRLSVLL | 2.8 |
| TEPDLIIVCAQSSQSLWNRLSVLL | 2.26 |
| TYPDLIIVCAQSSQSLWNRLSVLL | 1.77 |
| TDPDLIIVCAQSSQSLWNRLSVLL | 3.01 |
| TIPDLIIVCAQSSQSLWNRLSVLL | 2.22 |
| THPDLIIVCAQSSQSLWNRLSVLL | 1.88 |
| TPPDLIIVCAQSSQSLWNRLSVLL | 3.06 |
| DNPDLIIVCAQSSQSLWNRLSVLL | 1.57 |
| KNPDLIIVCAQSSQSLWNRLSVLL | 4.48 |
| WNPDLIIVCAQSSQSLWNRLSVLL | 2.35 |
| HNPDLIIVCAQSSQSLWNRLSVLL | 2.44 |
| PNPDLIIVCAQSSQSLWNRLSVLL | 1.98 |
| ANPDLIIVCAQSSQSLWNRLSVLL | 1.38 |
| YNPDLIIVCAQSSQSLWNRLSVLL | 1.66 |
| RNPDLIIVCAQSSQSLWNRLSVLL | 1.37 |
| QNPDLIIVCAQSSQSLWNRLSVLL | 3.39 |
| NNPDLIIVCAQSSQSLWNRLSVLL | 3.25 |
| VNPDLIIVCAQSSQSLWNRLSVLL | 2.84 |
| LNPDLIIVCAQSSQSLWNRLSVLL | 2.36 |
| MNPDLIIVCAQSSQSLWNRLSVLL | 2.97 |
| FNPDLIIVCAQSSQSLWNRLSVLL | 2.28 |

| Variant | protein stability index |
| --- | --- |
| INPDLIIVCAQSSQSLWNRLSVLL | 3.34 |
| TNPDLIIVCALSSQSLWNRLSVLL | 3.05 |
| TNPDLIIVCAKSSQSLWNRLSVLL | 2.89 |
| TNPDLIIVCARSSQSLWNRLSVLL | 2.19 |
| TNPDLIIVCAYSSQSLWNRLSVLL | 4.08 |
| TNPDLIIVCAMSSQSLWNRLSVLL | 2.81 |
| TNPDLIIVCAWSSQSLWNRLSVLL | 1.54 |
| TNPDLIIVCAVSSQSLWNRLSVLL | 3.29 |
| TNPDLIIVCATSSQSLWNRLSVLL | 3.57 |
| TNPDLIIVCAFSSQSLWNRLSVLL | 1.67 |
| TNPDLIIVCAPSSQSLWNRLSVLL | 3.62 |
| TNPDLIIVCADSSQSLWNRLSVLL | 3.08 |
| TNPDLIIVCANSSQSLWNRLSVLL | 2 |
| TNPDLIIVCACSSQSLWNRLSVLL | 3.76 |
| TNPDLIIVCAGSSQSLWNRLSVLL | 2.09 |
| TNPDLIIVCAESSQSLWNRLSVLL | 1.32 |
| TNPVLIIVCAQSSQSLWNRLSVLL | 1.67 |
| TNPILIIVCAQSSQSLWNRLSVLL | 2.79 |
| TNPPLIIVCAQSSQSLWNRLSVLL | 1.95 |
| TNPALIIVCAQSSQSLWNRLSVLL | 1.33 |
| TNPFLIIVCAQSSQSLWNRLSVLL | 1.71 |
| TNPGLIIVCAQSSQSLWNRLSVLL | 1.65 |
| TNPRLIIVCAQSSQSLWNRLSVLL | 1.94 |
| TNPCLIIVCAQSSQSLWNRLSVLL | 1.05 |

| Variant | protein stability index |
| --- | --- |
| TNPHLIIVCAQSSQSLWNRLSVLL | 3.73 |
| TNPMLIIVCAQSSQSLWNRLSVLL | 4.85 |
| TNPQLIIVCAQSSQSLWNRLSVLL | 2.18 |
| TNPSLIIVCAQSSQSLWNRLSVLL | 1.76 |
| TNPKLIIVCAQSSQSLWNRLSVLL | 3.33 |
| TNPDLIIVSAQSSQSLWNRLSVLL | 3.03 |
| TNPDLIIVRAQSSQSLWNRLSVLL | 2.12 |
| TNPDLIIVLAQSSQSLWNRLSVLL | 3.72 |
| TNPDLIIVIAQSSQSLWNRLSVLL | 2.72 |
| TNPDLIIVPAQSSQSLWNRLSVLL | 1.92 |
| TNPDLIIVEAQSSQSLWNRLSVLL | 1.72 |
| TNPDLIIVGAQSSQSLWNRLSVLL | 1.45 |
| TNPDLIIVYAQSSQSLWNRLSVLL | 1.56 |
| TNPDLIIVQAQSSQSLWNRLSVLL | 2.09 |
| TNPDLIIVNAQSSQSLWNRLSVLL | 2.35 |
| TNPDLIIVHAQSSQSLWNRLSVLL | 1.64 |
| TNPDLIIVAAQSSQSLWNRLSVLL | 2.28 |
| TNPDLIIVTAQSSQSLWNRLSVLL | 1.95 |
| TNPDLIIVVAQSSQSLWNRLSVLL | 2.69 |
| TNPDLIIVDAQSSQSLWNRLSVLL | 2.29 |
| TNPDLIIVFAQSSQSLWNRLSVLL | 2.64 |
| TNPDLIIVWAQSSQSLWNRLSVLL | 3.33 |
| TNPDLIIVMAQSSQSLWNRLSVLL | 1.76 |
| TNPDLIIVKAQSSQSLWNRLSVLL | 1.98 |

| Variant | protein stability index |
| --- | --- |
| TNPDLMIVCAQSSQSLWNRLSVLL | 1.93 |
| TNPDLLIVCAQSSQSLWNRLSVLL | 2.64 |
| TNPDLCIVCAQSSQSLWNRLSVLL | 1.26 |
| TNPDLHIVCAQSSQSLWNRLSVLL | 1.66 |
| TNPDLPIVCAQSSQSLWNRLSVLL | 2.57 |
| TNPDLDIVCAQSSQSLWNRLSVLL | 1.8 |
| TNPDLTIVCAQSSQSLWNRLSVLL | 1.79 |
| TNPDLKIVCAQSSQSLWNRLSVLL | 2.36 |
| TNPDLAIVCAQSSQSLWNRLSVLL | 2.1 |
| TNPDLVIVCAQSSQSLWNRLSVLL | 4.02 |
| TNPDLSIVCAQSSQSLWNRLSVLL | 2.87 |
| TNPDLEIVCAQSSQSLWNRLSVLL | 2.34 |
| TNPDLNIVCAQSSQSLWNRLSVLL | 2.4 |
| TNPDLQIVCAQSSQSLWNRLSVLL | 3.05 |
| TNPDLWIVCAQSSQSLWNRLSVLL | 2.5 |
| TNPDLGIVCAQSSQSLWNRLSVLL | 2.65 |
| TNPDLFIVCAQSSQSLWNRLSVLL | 2.5 |
| TNPDLYIVCAQSSQSLWNRLSVLL | 2.83 |
| TNPDLRIVCAQSSQSLWNRLSVLL | 2.2 |

Variants of: B2
Assay: as above
Conditions: c terminus: a fixed tail appended

| Variant | protein stability index |
| --- | --- |
| TLAALLLNRSESDIRYLLGYVSQY | 2.22 |
